In IntAct's records for PubMed 22778397:

B1: RNA-binding protein FUS (Homo sapiens), P35637 (parent)
chain: MASNDYTQQATQSYGAYPTQPGQGYSQQSSQPYGQQSYSGYSQSTDTSGYGQSSYSSYGQSQNTGYGTQSTPQGYGSTGGYGSSQSSQSSYGQQSSYPGYGQQPAPSSTSGSYGSSSQSSSYGQPQSGSYSQQPSYGGQQQSYGQQQSYNPPQGYGQQNQYNSSSGGGGGGGGGGNYGQDQSSMSSGGGSGGGYGNQDQSGGGGSGGYGQQDRGGRGRGGSGGGGGGGGGGYNRSSGGYEPRGRGGGRGGRGGMGGSDRGGFNKFGGPRDQGSRHDSEQDNSDNNTIFVQGLGENVTIESVADYFKQIGIIKTNKKTGQPMINLYTDRETGKLKGEATVSFDDPPSAKAAIDWFDGKEFSGNPIKVSFATRRADFNRGGGNGRGGRGRGGPMGRGGYGGGGSGGGGRGGFPSGGGGGGGQQRAGDWKCPNPTCENMNFSWRNECNQCKAPKPDGPGGGPGGSHMGGNYGDDRRGGRGGYDRGGYRGRGGDRGGFRGGRGGGDRGGFGPGKMDSRGEHRQDRRERPY

Variants of: B1
Conditions: with TNPO1, Q92973-2
Chain of TNPO1, Q92973-2 (Q92973 9-898): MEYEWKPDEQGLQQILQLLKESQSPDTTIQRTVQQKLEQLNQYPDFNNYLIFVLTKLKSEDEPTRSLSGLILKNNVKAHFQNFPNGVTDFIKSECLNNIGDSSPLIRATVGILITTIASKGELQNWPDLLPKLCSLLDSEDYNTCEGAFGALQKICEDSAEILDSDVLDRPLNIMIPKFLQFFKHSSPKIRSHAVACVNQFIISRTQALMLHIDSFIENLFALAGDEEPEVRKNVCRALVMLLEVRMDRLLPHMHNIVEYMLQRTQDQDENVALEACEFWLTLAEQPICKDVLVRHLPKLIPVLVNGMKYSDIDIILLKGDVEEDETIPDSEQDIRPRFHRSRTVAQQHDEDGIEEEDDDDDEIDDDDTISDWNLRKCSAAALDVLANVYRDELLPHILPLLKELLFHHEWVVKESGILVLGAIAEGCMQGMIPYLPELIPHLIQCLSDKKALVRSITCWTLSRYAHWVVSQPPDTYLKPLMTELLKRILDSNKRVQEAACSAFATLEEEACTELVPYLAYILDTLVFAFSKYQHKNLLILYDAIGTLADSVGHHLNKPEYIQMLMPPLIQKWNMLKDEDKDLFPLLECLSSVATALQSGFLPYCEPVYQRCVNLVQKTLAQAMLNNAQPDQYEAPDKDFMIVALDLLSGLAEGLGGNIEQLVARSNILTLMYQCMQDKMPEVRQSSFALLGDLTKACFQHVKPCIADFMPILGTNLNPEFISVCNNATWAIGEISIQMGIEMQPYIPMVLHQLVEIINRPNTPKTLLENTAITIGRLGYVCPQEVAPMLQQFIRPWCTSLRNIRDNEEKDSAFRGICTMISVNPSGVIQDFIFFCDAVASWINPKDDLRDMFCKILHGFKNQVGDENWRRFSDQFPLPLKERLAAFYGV

Variant	effect of a mutation on the interaction
R521A;R522A	decreasing interaction strength
R518A	decreasing interaction strength
P525L	decreasing interaction strength
R522A	decreasing interaction strength
Y526A	decreasing interaction strength
R521C	decreasing interaction strength
R514A;R518A;R521A;R522A	disrupting interaction strength
P525A	decreasing interaction strength
P508A;G509A;K510A;M511A	decreasing interaction strength
R514A;R518A	decreasing interaction strength
P525A;Y526A	decreasing interaction strength
R524S	decreasing interaction strength
H517Q	decreasing interaction strength
